Test results: the Immune Epitope Database (IEDB)
Blank lines part the entries; values can stand above or below the sequence they belong to.

Experiments:
HLA-A*26:01 [1] = assay: IEDB peptide-MHC binding, purified MHC/direct/fluorescence; filed as Kd, often an IC50 or EC50 that approximates it; ≥ and ≤ were set here for values at or beyond the usual limits of such assays
HLA-A*24:03 = assay: as above
HLA-B*44:02 = assay: as above
HLA-A*01:01 = assay: as above
HLA-B*58:01 = assay: as above
HLA-B*15:01 [2] = assay: as above
HLA-A*69:01 = assay: as above
HLA-B*27:05 = assay: as above
HLA-A*02:01 [3] = assay: as above
HLA-B*08:01 = assay: as above
HLA-A*31:01 = assay: as above
HLA-B*40:01 = assay: as above
HLA-B*07:02 [4] = assay: as above
HLA-A*03:01 = assay: as above
HLA-A*11:01 = assay: as above
HLA-A*32:01 = assay: IEDB peptide-MHC binding, purified MHC/competitive/radioactivity; filed as Kd, often an IC50 or EC50 that approximates it; ≥ and ≤ were set here for values at or beyond the usual limits of such assays; settings: source organism: Vaccinia virus WR
HLA-B*15:01 [5] = assay: IEDB peptide-MHC binding, purified MHC/competitive/fluorescence; ≥ and ≤ were set here for values at or beyond the usual limits of such assays
HLA-A*02:01 [6] = assay: as above
HLA-B*07:02 [7] = assay: IEDB peptide-MHC binding, purified MHC/competitive/radioactivity; filed as Kd, often an IC50 or EC50 that approximates it; ≥ and ≤ were set here for values at or beyond the usual limits of such assays
HLA-A*68:02 = assay: as above
HLA-A*26:01 [8] = assay: as above; settings: source organism: Dengue virus 4 Philippines/H241/1956
HLA-A*24:02 = assay: IEDB peptide-MHC binding, purified MHC/competitive/fluorescence; ≥ and ≤ were set here for values at or beyond the usual limits of such assays; settings: source organism: Zaire ebolavirus
HLA-A*02:02 = assay: IEDB peptide-MHC binding, purified MHC/competitive/radioactivity; filed as Kd, often an IC50 or EC50 that approximates it; ≥ and ≤ were set here for values at or beyond the usual limits of such assays
HLA-A*02:03 = assay: as above
HLA-A*02:06 = assay: as above
HLA-B*53:01 = assay: as above; settings: source organism: Dengue virus 4 Philippines/H241/1956
HLA-A*02:01 [9] = assay: as above
HLA-B*51:01 = assay: as above; settings: source organism: Dengue virus 3 Martinique/1243/1999
[10] = source organism: Giardia lamblia ATCC 50803
[11] = source organism: Dengue virus 4 Philippines/H241/1956
[12] = source organism: Zaire ebolavirus
[13] = source organism: Vaccinia virus
[14] = source organism: Vibrio cholerae
[15] = source organism: Trypanosoma cruzi
[16] = source organism: Histophilus somni
[17] = source organism: Pasteurella multocida
[18] = source organism: Sudan ebolavirus
[19] = source organism: Dengue virus 2 Jamaica/1409/1983

Sequence: RPRGHREFC
Kd (HLA-A*26:01 [1]; [10]): ≥ 20 µM
Kd (HLA-A*24:03; [10]): ≥ 20 µM
Kd (HLA-B*44:02; [10]): ≥ 20 µM
Kd (HLA-A*01:01; [10]): ≥ 20 µM
Kd (HLA-B*58:01; [10]): ≥ 20 µM
Kd (HLA-B*15:01 [2]; [10]): ≥ 20 µM
Kd (HLA-A*69:01; [10]): ≥ 20 µM
Kd (HLA-B*27:05; [10]): ≥ 20 µM
Kd (HLA-A*02:01 [3]; [10]): ≥ 20 µM
Kd (HLA-B*08:01; [10]): 8.07 µM
Kd (HLA-A*31:01; [10]): ≥ 20 µM
Kd (HLA-B*40:01; [10]): ≥ 20 µM
Kd (HLA-B*07:02 [4]; [10]): 0.0984 µM
Kd (HLA-A*03:01; [10]): ≥ 20 µM
Kd (HLA-A*11:01; [10]): ≥ 20 µM

Sequence: LLLWFNYLF
Kd (HLA-A*32:01): 0.00145 µM
IC50 (HLA-B*15:01 [5]; source organism: Variola virus): ≥ 2970 µM
IC50 (HLA-A*02:01 [6]; source organism: Variola virus): 0.125 µM

Sequence: NPNMIDKTPV
Kd (HLA-B*07:02 [7]; source organism: Dengue virus 4 Thailand/0348/1991): 0.402 µM

Sequence: TIAVSTANI
Kd (HLA-A*68:02; [11]): 0.0256 µM

Sequence: SLAKHGEYA
IC50 (HLA-B*15:01 [5]; [12]): ≥ 127 µM
IC50 (HLA-A*02:01 [6]; [12]): 7.2 µM

Sequence: SKNNIGIEY
IC50 (HLA-B*15:01 [5]; [13]): ≥ 87.2 µM

Sequence: LETDLRSEF
IC50 (HLA-B*15:01 [5]; [13]): 47.5 µM

Sequence: EVALLRTYCI
Kd (HLA-A*26:01 [8]): 6.17 µM
Kd (HLA-A*68:02; [11]): 0.0297 µM

Sequence: AENKKFKLH
Kd (HLA-A*26:01 [1]; [14]): ≥ 20 µM
Kd (HLA-B*44:02; [14]): ≥ 20 µM
Kd (HLA-A*01:01; [14]): ≥ 20 µM
Kd (HLA-B*58:01; [14]): ≥ 20 µM
Kd (HLA-B*15:01 [2]; [14]): ≥ 20 µM
Kd (HLA-A*69:01; [14]): ≥ 20 µM
Kd (HLA-B*27:05; [14]): ≥ 20 µM
Kd (HLA-A*02:01 [3]; [14]): ≥ 20 µM
Kd (HLA-B*08:01; [14]): ≥ 20 µM
Kd (HLA-A*31:01; [14]): ≥ 20 µM
Kd (HLA-B*40:01; [14]): 2.71 µM
Kd (HLA-B*07:02 [4]; [14]): ≥ 20 µM
Kd (HLA-A*03:01; [14]): ≥ 20 µM
Kd (HLA-A*11:01; [14]): ≥ 20 µM

Sequence: LMHNQDGLI
IC50 (HLA-B*15:01 [5]; [12]): 67.4 µM
IC50 (HLA-A*24:02): 24.6 µM
IC50 (HLA-A*02:01 [6]; [12]): 1.72 µM

Sequence: FLSHDFTLV
Kd (HLA-A*02:02; [15]): 0.0619 nM
Kd (HLA-A*68:02; [15]): 0.636 µM
Kd (HLA-A*02:03; [15]): 0.000142 µM
Kd (HLA-A*02:06; [15]): 0.000765 µM

Sequence: FGMFTTNIW
Kd (HLA-B*53:01): 0.0205 µM

Kd (HLA-A*26:01 [1]; [16]): ≥ 20 µM
Kd (HLA-A*24:03; [17]): 0.00192 µM
Kd (HLA-A*01:01; [16]): ≥ 20 µM
Kd (HLA-B*58:01; [16]): ≥ 20 µM
Kd (HLA-B*15:01 [2]; [16]): ≥ 20 µM
Kd (HLA-A*69:01; [16]): ≥ 20 µM
Kd (HLA-B*27:05; [16]): ≥ 20 µM
Kd (HLA-A*02:01 [3]; [16]): ≥ 20 µM
Kd (HLA-B*08:01; [16]): ≥ 20 µM
Kd (HLA-B*40:01; [16]): ≥ 20 µM
Kd (HLA-B*07:02 [4]; [16]): ≥ 20 µM
Kd (HLA-A*03:01; [16]): ≥ 20 µM
Kd (HLA-A*11:01; [17]): 2.82 µM
Sequence: QYPAFVLFI

Kd (HLA-A*02:02; source organism: Homo sapiens): 4.63 nM
Kd (HLA-A*02:01 [9]; source organism: Homo sapiens): 0.078 µM
Kd (HLA-A*68:02; source organism: Homo sapiens): 7.62 µM
Kd (HLA-A*02:03; source organism: Homo sapiens): 0.0163 µM
Sequence: QLYKEQLAKL

Sequence: SLAIDAYPL
Kd (HLA-B*15:01 [2]; source organism: SARS-CoV1): 1.08 µM
Kd (HLA-A*69:01; source organism: SARS-CoV1): 0.272 µM
Kd (HLA-A*02:01 [3]; source organism: SARS-CoV1): 0.145 µM
Kd (HLA-B*08:01; source organism: SARS-CoV1): 9.19 µM
Kd (HLA-B*40:01; source organism: SARS-CoV1): ≥ 31.5 µM
Kd (HLA-B*07:02 [4]; source organism: SARS-CoV1): ≥ 33.4 µM

Sequence: LQSPPIREA
IC50 (HLA-B*15:01 [5]; [18]): 37.8 µM
IC50 (HLA-A*02:01 [6]; [18]): 14.3 µM

Sequence: SPPPVGKAEL
Kd (HLA-B*07:02 [7]; [19]): 0.0673 µM

Sequence: SILRVGTLT
Kd (HLA-A*02:01 [9]; source organism: Lassa virus Josiah): ≥ 25 µM

Kd (HLA-A*02:01 [9]; source organism: Homo sapiens): 15 µM
Kd (HLA-A*02:06; source organism: Homo sapiens): ≥ 72.5 µM
Sequence: DMKKKMEDSV

Sequence: LAANAICSAV
Kd (HLA-A*68:02; [19]): 0.00904 µM

Sequence: APIQDEERDI
Kd (HLA-B*51:01): ≥ 69.6 µM
Kd (HLA-B*07:02 [7]; source organism: Dengue virus 3 Martinique/1243/1999): 5.06 µM

Sequence: QQKNSQKGQ
IC50 (HLA-B*15:01 [5]; [12]): ≥ 93.5 µM

Kd (HLA-A*68:02; source organism: Homo sapiens): ≥ 60 µM
Sequence: QMKDCMREL

Sequence: AKHGEYAPF
IC50 (HLA-B*15:01 [5]; [12]): ≥ 77.4 µM
IC50 (HLA-A*24:02): 63.1 µM
